One experiment concerns the target integrin αL chain (UniProt P20701). Kind of experiment: SPR; Biacore 3000, 25°C; integrin αL amine-coupled to CM5 (~500 RU), soluble VWF or VWF-A2 flowed over at 30 μL/min in TBSTG (25 mM Tris pH 7.5, 150 mM NaCl, 0.05% Tween, 2% glycerol); apparent.
The target in experiment [1] is T1, factor VIII‐free Von Willebrand factor (human, UniProt P04275 764-2813).
T1 construct: Von Willebrand factor, human, factor VIII-free; multimeric; molar concentration counted with a monomeric MW of 260 kDa; Multimeric protein; On the SPR chip it was treated with 10 mM TCEP after coupling; also called VWF; recombinant human factor VIII‐free VWF; source: bought: Haematologic Technologies / Prolytix, catalogue HCVWF‐0191
Kind of experiment: SPR; Biacore 3000, 25°C; factor VIII-free VWF amine-coupled to CM5 (~3000 RU after TCEP), αL flowed over at 30 μL/min in TBSTG (25 mM Tris pH 7.5, 150 mM NaCl, 0.05% Tween, 2% glycerol); two-state binding model; apparent. The note with it: both partners purified.

“recombinant VWF‐A2 protein (domain or fragment)”: in the experiment with integrin αL chain, the Kd was 94 nM, the ka1 was 140000 M⁻¹ s⁻¹ and the kd1 amounted to 0.013 s⁻¹.

B1: integrin αL chain (receptor, UniProt P20701 26-1090, looked up)
chain: YNLDVRGARSFSPPRAGRHFGYRVLQVGNGVIVGAPGEGNSTGSLYQCQSGTGHCLPVTLRGSNYTSKYLGMTLATDPTDGSILACDPGLSRTCDQNTYLSGLCYLFRQNLQGPMLQGRPGFQECIKGNVDLVFLFDGSMSLQPDEFQKILDFMKDVMKKLSNTSYQFAAVQFSTSYKTEFDFSDYVKRKDPDALLKHVKHMLLLTNTFGAINYVATEVFREELGARPDATKVLIIITDGEATDSGNIDAAKDIIRYIIGIGKHFQTKESQETLHKFASKPASEFVKILDTFEKLKDLFTELQKKIYVIEGTSKQDLTSFNMELSSSGISADLSRGHAVVGAVGAKDWAGGFLDLKADLQDDTFIGNEPLTPEVRAGYLGYTVTWLPSRQKTSLLASGAPRYQHMGRVLLFQEPQGGGHWSQVQTIHGTQIGSYFGGELCGVDVDQDGETELLLIGAPLFYGEQRGGRVFIYQRRQLGFEEVSELQGDPGYPLGRFGEAITALTDINGDGLVDVAVGAPLEEQGAVYIFNGRHGGLSPQPSQRIEGTQVLSGIQWFGRSIHGVKDLEGDGLADVAVGAESQMIVLSSRPVVDMVTLMSFSPAEIPVHEVECSYSTSNKMKEGVNITICFQIKSLIPQFQGRLVANLTYTLQLDGHRTRRRGLFPGGRHELRRNIAVTTSMSCTDFSFHFPVCVQDLISPINVSLNFSLWEEEGTPRDQRAQGKDIPPILRPSLHSETWEIPFEKNCGEDKKCEANLRVSFSPARSRALRLTAFASLSVELSLSNLEEDAYWVQLDLHFPPGLSFRKVEMLKPHSQIPVSCEELPEESRLLSRALSCNVSSPIFKAGHSVALQMMFNTLVNSSWGDSVELHANVTCNNEDSDLLEDNSATTIIPILYPINILIQDQEDSTLYVSFTPKGPKIHQVKHMYQVRIQPSIHDHNIPTLEAVVGVPQPPSEGPITHQWSVQMEPPVPCHYEDLERLPDAAEPCLPGALFRCPVVFRQEILVQVIGTLELVGEIEASSMFSLCSSLSISFNSSKHFHLYGSNASLAQVVMKVDVVYEKQML
notes: integrin αL chain (CD11a), recombinant, Origene TP321297; αL chain alone, without β2, in the SPR experiments; In the functional rows this molecule stands for αLβ2 on Jurkat cells; also called aL; CD11a; source: bought: Origene, catalogue TP321297
With B1, the Kd in experiment [1] is 120 nM.
